The source of these data is doi:10.1101/2020.05.24.113621 (bioRxiv, 2020).

The data set deals with the molecule itself. The data set can be described thus: crystal structure.

Consider GNYNVF [hnRNPA2 mutant core segment GNYNVF (residues 286-291 with D290V)], for which the binding result is recorded as “binds”.
